Measured values: patent publication US20190092856A1 (published 2019)

T1: Cynomolgus monkey (Macaca fascicularis) OSM, recombinant, in-house (cynomolgus monkey, UniProt P13725 26-221 (human entry), limits assumed)
T1 construct: His/AviTag construct expressed in HEK 293; also called Cyno OSM; cyno OSM
T1 chain: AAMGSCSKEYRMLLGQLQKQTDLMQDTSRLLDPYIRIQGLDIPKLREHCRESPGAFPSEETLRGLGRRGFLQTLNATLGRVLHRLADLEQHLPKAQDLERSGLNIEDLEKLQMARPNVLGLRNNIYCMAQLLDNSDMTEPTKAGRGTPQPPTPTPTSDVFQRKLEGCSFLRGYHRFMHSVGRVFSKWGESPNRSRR

T2: human OSM (recombinant, mammalian-cell derived, OSMN1-1) (human, UniProt P13725 26-221)
T2 construct: Precursor and mature (amino acids 1-184) forms were both expressed in HEK 293; also called hOSM; human oncostatin M
T2 sequence: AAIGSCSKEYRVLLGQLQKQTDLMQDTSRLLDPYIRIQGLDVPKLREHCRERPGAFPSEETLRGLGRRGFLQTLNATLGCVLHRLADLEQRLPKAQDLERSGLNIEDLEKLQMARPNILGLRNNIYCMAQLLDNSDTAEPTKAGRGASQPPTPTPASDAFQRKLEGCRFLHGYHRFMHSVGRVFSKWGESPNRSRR

T3: CHO cell-derived recombinant human oncostatin M (in-house) (human, UniProt P13725 26-221, limits assumed)
T3 sequence: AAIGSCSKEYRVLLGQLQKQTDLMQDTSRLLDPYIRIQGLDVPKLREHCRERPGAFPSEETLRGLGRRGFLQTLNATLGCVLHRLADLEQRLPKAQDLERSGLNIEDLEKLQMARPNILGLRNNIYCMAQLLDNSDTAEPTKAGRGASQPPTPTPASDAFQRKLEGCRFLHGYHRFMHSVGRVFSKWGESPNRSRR

T4: CHO cell-derived recombinant cynomolgous monkey oncostatin M (in-house) (cynomolgus monkey, UniProt P13725 26-221 (human entry), limits assumed)
T4 chain: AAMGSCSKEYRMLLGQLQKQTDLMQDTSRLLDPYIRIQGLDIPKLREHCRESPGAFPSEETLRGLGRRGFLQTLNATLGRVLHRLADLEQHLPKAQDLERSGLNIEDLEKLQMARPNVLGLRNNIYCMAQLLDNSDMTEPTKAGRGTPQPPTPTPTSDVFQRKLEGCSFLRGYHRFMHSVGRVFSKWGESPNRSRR

T5: native human Oncostatin M (macrophage-derived) (human, UniProt P13725 26-221, limits assumed)
T5 sequence: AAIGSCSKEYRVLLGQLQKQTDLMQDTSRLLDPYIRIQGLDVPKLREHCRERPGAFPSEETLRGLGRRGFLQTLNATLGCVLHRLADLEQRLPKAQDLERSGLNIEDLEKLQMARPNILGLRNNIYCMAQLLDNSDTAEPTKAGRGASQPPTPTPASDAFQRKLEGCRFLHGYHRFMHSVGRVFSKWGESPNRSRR


Experiments:
[1] = biological target: T1, Cynomolgus monkey (Macaca fascicularis) …; experiment: SPR (Biacore), KD for cyno OSM over KD for human OSM
Method: (§1) The binding affinities were measured using Surface Plasmon Resonance (SPR) with a Biacore 3000 optical biosensor (Biacore) using human or Cyno OSM constructs as described. […] Approximately 19,000 RU (response units) of anti-OSM antibody were immobilized in each of four flow cells. The kinetic experiments were performed at 25° C. in running buffer (DPBS+0.005% P20+3 mM EDTA). Serial dilutions Human and Cyno OSM ECD from 100 nM to 0.412 nM were prepared in running buffer. About 200 RU of mAb were captured on flow cells 2 to 4 of the sensor chip. Flow cell 1 was used as reference surface. Capture of mAb was followed by a three-minute injection (association phase) of antigen at 50 μl/min, followed by 10 minutes of buffer flow (dissociation phase). The chip surface was regenerated by two pulses of 18-second injections of 100 mM H3PO4 (Sigma, Cat. No. 7961) at 50 μl/min.
(§2) The collected data was processed using the BIAevaluation software (Biacore, version 3.2). First, double reference subtraction of the data was performed by subtracting the curves generated by buffer injection from the reference-subtracted curves for analyte injections. Kinetic analysis of the data was performed using 1:1 binding model with global fit. The result for each mAb was reported in the format of Ka (On-rate), Kd (Off-rate) and KD (affinity constant).

[2] = biological target: T1, Cynomolgus monkey (Macaca fascicularis) …; experiment: SPR (Biacore), mAb captured by anti-Fc, OSM as analyte
Method: as §1, §2

[3] = biological target: T2, human OSM (recombinant, mammalian-cell …); experiment: as above
Method: as §1, §2

[4] = biological target: T2, human OSM (recombinant, mammalian-cell …); experiment: SPR competition, hOSM captured on immobilized M71 (competitor), sample at 300 nM
Method: (§3) The biosensor surface was prepared by coupling each test mAb to the carboxymethylated dextran surface of a CM-5 chip (Biacore, Cat# BR-1000-14) following the manufacturer's instructions. Approximately 4,000-15,000 RU (response units) of each test mAb were immobilized in one the instrument's four flow cells. Competition experiments were performed at 25 ° C. in running buffer (DPBS+0.005% P20+3 mM EDTA). Human OSM (in-house, OSMN1-1) was diluted to 30 nM in running buffer and injected at 3 μl/min for 3 minutes over each of the flow cells with immobilized mAb. […] The chip surface was regenerated by two 12-second pulses of 100 mM H3PO4 (Sigma, Cat# 7961) at 50 μl/min. The collected data were processed using BIAevaluation software version 3.2 (Biacore). First, the sensorgrams were aligned upon injection of human OSM. […] Flow-cell (Fc1, etc.) immobilized mAbs appear along the horizontal sample rows of Table 10.

[5] = biological target: T2, human OSM (recombinant, mammalian-cell …); experiment: SPR competition, second chip, hOSM captured on immobilized M64 (competitor), sample at 300 nM
Method: as §3

[6] = biological target: T2, human OSM (recombinant, mammalian-cell …); experiment: SPR competition, hOSM captured on immobilized M54 (competitor), sample at 300 nM
Method: as §3

[7] = biological target: T2, human OSM (recombinant, mammalian-cell …); experiment: SPR competition, hOSM captured on immobilized M69 (competitor), sample at 300 nM
Method: as §3

[8] = biological target: T2, human OSM (recombinant, mammalian-cell …); experiment: SPR competition, second chip, hOSM captured on immobilized M55 (competitor), sample at 300 nM
Method: as §3

[9] = biological target: T2, human OSM (recombinant, mammalian-cell …); experiment: SPR competition, hOSM captured on immobilized M2 (competitor), sample at 300 nM
Method: as §3

[10] = biological target: T2, human OSM (recombinant, mammalian-cell …); experiment: SPR competition, second chip, hOSM captured on immobilized M2 (competitor), sample at 300 nM
Method: as §3

[11] = biological target: T2, human OSM (recombinant, mammalian-cell …); experiment: cell-based or functional assay
[12] = biological target: T3, CHO cell-derived recombinant human …; experiment: cell-based or functional assay
[13] = biological target: T4, CHO cell-derived recombinant …; experiment: cell-based or functional assay
[14] = biological target: T2, human OSM (recombinant, mammalian-cell …); experiment: cell-based or functional assay; remark: listed apart in the source
[15] = biological target: T5, native human Oncostatin M …; experiment: cell-based or functional assay

Row | Binder | KD ratio Cyno/Human [1] | Kd [2] [nM] | koff [2] [s⁻¹] | kon [2] [M⁻¹ s⁻¹] | Kd [3] [nM] | koff [3] [s⁻¹] | kon [3] [M⁻¹ s⁻¹] | Binding Level (RU) [4] [RU] | Binding Level (RU) [5] [RU] | Binding Level (RU) [6] [RU] | Binding Level (RU) [7] [RU] | Binding Level (RU) [8] [RU] | Binding Level (RU) [9] [RU] | Binding Level (RU) [10] [RU] | pSTAT3 inhibition EC50 (A375 cells, 5 ng/ml hOSM) [11] [ng/ml] | IC50, neutralization of OSM suppression of A375-S2 proliferation (BrdU) [12] [µg/mL] | IC50, neutralization of OSM suppression of A375-S2 proliferation (BrdU) [13] [µg/mL] | IC50, neutralization of OSM-induced STAT3 phosphorylation in NHLF cells (2 ng/ml OSM) [14] [µg/mL] | EC50, increase of proteoglycan synthesis in macrophage-chondrocyte co-culture [15] [µg/mL]
1 | M10 (antibody, V domains shown, Tested as full-length human IgG1; also called OSMM10; H2/L2) VH: QVQLVQSGAEVKKPGSSVKVSCKASGGTFSSYAISWVRQAPGQGLEWMGGIIPIFGNANYAQKFQGRVTITADESTSTAYMELSSLRSEDTAVYYCARYGAKGLLDYWGQGTLVTVSS VL: not shown | 18.1 | 18.9 | 0.00101 | 53300 | 1.05 | 6.3e-05 | 60200 |  |  |  |  |  |  |  |  |  |  |  | 
2 | Human gp130-Fc (R&D Systems, Cat. No. 671-GP) (Fc fusion, UniProt P40189 23-619, looked up, Bought fusion protein; also called gp130-Fc chimera; Fc part of the bought chimera not given, not described) ELLDPCGYISPESPVVQLHSNFTAVCVLKEKCMDYFHVNANYIVWKTNHFTIPKEQYTIINRTASSVTFTDIASLNIQLTCNILTFGQLEQNVYGITIISGLPPEKPKNLSCIVNEGKKMRCEWDGGRETHLETNFTLKSEWATHKFADCKAKRDTPTSCTVDYSTVYFVNIEVWVEAENALGKVTSDHINFDPVYKVKPNPPHNLSVINSEELSSILKLTWTNPSIKSVIILKYNIQYRTKDASTWSQIPPEDTASTRSSFTVQDLKPFTEYVFRIRCMKEDGKGYWSDWSEEASGITYEDRPSKAPSFWYKIDPSHTQGYRTVQLVWKTLPPFEANGKILDYEVTLTRWKSHLQNYTVNATKLTVNLTNDRYLATLTVRNLVGKSDAAVLTIPACDFQATHPVMDLKAFPKDNMLWVEWTTPRESVKKYILEWCVLSDKAPCITDWQQEDGTVHRTYLRGNLAESKCYLITVTPVYADGPGSPESIKAYLKQAPPSKGPTVRTKKVGKNEAVLEWDQLPVDVQNGFIRNYTIFYRTIIGNETAVNVDSSHTEYTLSSLTSDTLYMVRMAAYTDEGGKDGPEFTFTTPKFAQGEIE |  |  |  |  |  |  |  | 29 | 18 | 17 | 20 | 25 | 319 | 251 |  |  |  |  | 
3 | M9 (antibody, V domains shown, Tested as full-length human IgG1; also called OSMM9) VH: EVQLVQSGAEVKKPGESLKISCKGSGYSFTSYWISWVRQMPGKGLEWMGIIYPGDSYTRYSPSFQGQVTISADKSISTAYLQWSSLKASDTAMYYCARVPVSPAYLDYWGQGTLVTVSS VL: not shown | 0.6 | 0.73 | 5.4e-05 | 73100 | 1.22 | 8.1e-05 | 66300 |  |  |  |  |  |  |  | 1220 |  |  |  | 

Second part, the binder after the results:

Row | KD ratio Cyno/Human [1] | Kd [2] [nM] | koff [2] [s⁻¹] | kon [2] [M⁻¹ s⁻¹] | Kd [3] [nM] | koff [3] [s⁻¹] | kon [3] [M⁻¹ s⁻¹] | Binding Level (RU) [4] [RU] | Binding Level (RU) [5] [RU] | Binding Level (RU) [6] [RU] | Binding Level (RU) [7] [RU] | Binding Level (RU) [8] [RU] | Binding Level (RU) [9] [RU] | Binding Level (RU) [10] [RU] | pSTAT3 inhibition EC50 (A375 cells, 5 ng/ml hOSM) [11] [ng/ml] | IC50, neutralization of OSM suppression of A375-S2 proliferation (BrdU) [12] [µg/mL] | IC50, neutralization of OSM suppression of A375-S2 proliferation (BrdU) [13] [µg/mL] | IC50, neutralization of OSM-induced STAT3 phosphorylation in NHLF cells (2 ng/ml OSM) [14] [µg/mL] | EC50, increase of proteoglycan synthesis in macrophage-chondrocyte co-culture [15] [µg/mL] | Binder
4 | 1 | 12.1 | 0.00111 | 92200 | 11.8 | 0.000779 | 65900 |  |  |  |  |  |  |  |  |  |  |  |  | M5 (antibody, V domains shown, Tested as full-length human IgG1; also called OSMM5; H135/L111) VH: EVQLVQSGAEVKKPGESLKISCKGSGYSFTSYWIGWVRQMPGKGLEWMGIIYPGDSDTRYSPSFQGQVTISADKSISTAYLQWSSLKASDTAMYYCARGFGASYLDYWGQGTLVTVSS VL: not shown
5 | 1.4 | 1.48 | 0.000299 | 203000 | 1.03 | 0.000197 | 192000 | 19 | 33 | 11 | 16 | 36 | 985 | 926 | 650 |  |  |  |  | M6 (antibody, V domains shown, Tested as full-length human IgG1; also called OSMM6; H14/L12) VH: EVQLVQSGAEVKKPGESLKISCKGSGYSFTSYWISWVRQMPGKGLEWMGIIYPGDSYTRYSPSFQGQVTISADKSISTAYLQWSSLKASDTAMYYCARGSVFEAYFDYWGQGTLVTVSS VL: not shown
6 |  |  |  |  |  |  |  | 32 | 17 | -1 | 23 | 22 | 1190 | 1130 | 160 | 0.0219 | 0.0397 | 0.0089 | 0.03 | M71 (antibody, V domains shown, Human IgG1; also called H17/L180) VH: EVQLVQSGAEVKKPGESLKISCKGSGYSFTSYWISWVRQMPGKGLEWMGIIYPGDSYTRYSPSFQGQVTISADKSISTAYLQWSSLKASDTAMYYCARVPVSPAYLDYWGQGTLVTVSS VL: not shown
